According to the RNAGym collection of RNA variant scans (doi:10.1021/acssynbio.7b00057):

B1: Pistol ribozyme (parent)
chain: GGGUCGUUGUUCCAUAAUCGCGUGGAUAUGGCACGCAAGUUUCUACCGGGCACCGUAAAUGUCCGACUGGAGCCGUUCGGGCGGCUAUAAACAGACCUCAGGCCCGAAGCGUGGCGGCACCUGCCGCCGGUGGUAAAAAAGAUCGGAAGAGCACACGUCU

Variants of: B1
Test: aptazyme ON/OFF ratio, guanine; higher = stronger switching; co-transcriptional cleavage with and without guanine

Row | Variant | aptazyme ON/OFF ratio
1 | U7C G9U U10C U11G C12G C13U | 1.11
2 | U7C G9U U10C U11G C12G C13G | 1.11
3 | U7C G9U U10C U11G C12G C13A | 1.1
4 | U7C U8A G9A U10C C12G | 1.2
5 | U7C U8A G9A U10C C12A | 1.19
6 | U7C U8A G9A U10C C12U | 1.58
7 | U7C G9U U11G C12U | 1.47
8 | U7C G9U U11G C12G | 1.18
9 | U7C G9U U11G C12A | 1.09
10 | U7C U8A G9A U10C U11G C12A C13A | 1.2
11 | U7C U8A G9A U10C U11G C12A C13G | 1.16
12 | U7C U8A G9A U10C U11G C12A C13U | 1.14
13 | U7C G9U U10C U11G | 1.18
14 | U7C U8A G9A U10G U11A C12G C13A | 1.06
15 | U7C U8A G9A U10G U11A C12G C13U | 1.24
16 | U7C U8A G9A U10G U11A C12G C13G | 1.07
17 | U7C U8A G9A U10C U11G C12U C13A | 1.17
18 | U7C U8A G9A U10C U11G C12U C13U | 1.26
19 | U7C U8A G9A U10C U11G C12U C13G | 1.27
20 | U7C G9U U11G C12G C13U | 1.1
21 | U7C G9U U11G C12G C13G | 1.17

Row | Variant | aptazyme ON/OFF ratio
22 | U7C G9U U11G C12G C13A | 1.18
23 | U7C U8A G9A U10A U11C C12G | 1.21
24 | U7C U8A G9A U10A U11C C12U | 1.09
25 | U7C U8A G9A U10A U11C C12A | 1.16
26 | U7C G9U U10C U11C C12G C13U | 1.02
27 | U7C G9U U10C U11C C12G C13A | 1.03
28 | U7C G9U U10C U11C C12G C13G | 1.03
29 | U7C G9U U10C U11G C12A C13U | 1.11
30 | U7C G9U U10C U11G C12A C13G | 1.1
31 | U7C G9U U10C U11G C12A C13A | 1.11
32 | U7C U8A G9A U10G C13A | 1.17
33 | U7C U8A G9A U10G C13U | 1.39
34 | U7C U8A G9A U10G C13G | 1.08
35 | U7C G9U U10G U11C C12G | 1.09
36 | U7C G9U U10G U11C C12U | 1.14
37 | U7C G9U U10G U11C C12A | 1.2
38 | U7C G9U U11G C12U C13A | 1.17
39 | U7C G9U U11G C12U C13G | 1.11
40 | U7C G9U U11G C12U C13U | 1.3
41 | U7C G9U U10G U11A C12U C13U | 1.1
42 | U7C G9U U10G U11A C12U C13G | 1.1

Row | Variant | aptazyme ON/OFF ratio
43 | U7C G9U U10G U11A C12U C13A | 1.19
44 | U7C G9U U10G U11G | 1.11
45 | U7C G9U U10G U11A | 1.03
46 | U7C G9U U10G U11C | 1.09
47 | U7C G9U U10G U11G C13U | 1.1
48 | U7C G9U U10G U11G C13G | 1.1
49 | U7C G9U U10G U11G C13A | 1.09
50 | U7C U8A G9A U10C C12A C13A | 1.14
51 | U7C U8A G9A U10C C12A C13G | 1.16
52 | U7C U8A G9A U10C C12A C13U | 1.24
53 | U7C U8A C13U | 1.71
54 | U7C U8A C13A | 1.31
55 | U7C U8A C13G | 1.11
56 | U7C U8A G9A U10A C12G C13G | 1.24
57 | U7C U8A G9A U10A C12G C13U | 1.27
58 | U7C U8A G9A U10A C12G C13A | 1.23
59 | U7C U8A C12A C13U | 1.39
60 | U7C U8A C12A C13A | 1.34
61 | U7C U8A C12A C13G | 1.09
62 | U7C U8A G9A C12U C13A | 1.19
63 | U7C U8A G9A C12U C13U | 1.18

Row | Variant | aptazyme ON/OFF ratio
64 | U7C U8A G9A C12U C13G | 1.19
65 | U7C G9U U11G | 1.35
66 | U7C G9U U11C | 1.12
67 | U7C G9U U11A | 1.41
68 | U7C G9U U10G U11C C12G C13U | 1.12
69 | U7C G9U U10G U11C C12G C13G | 1.11
70 | U7C G9U U10G U11C C12G C13A | 1.06
71 | U7C U8A G9A U10C U11C C13A | 1.03
72 | U7C U8A G9A U10C U11C C13G | 1.05
73 | U7C U8A G9A U10C U11C C13U | 0.994
74 | U7C U8A G9A | 1.22
75 | U7C G9U U10G C12U | 1.39
76 | U7C G9U U10G C12A | 1.21
77 | U7C G9U U10G C12G | 1.12
78 | U7C G9U U10G U11G C12U C13A | 1.07
79 | U7C G9U U10G U11G C12U C13U | 1.11
80 | U7C G9U U10G U11G C12U C13G | 1.13
81 | U7C G9U U10G U11C C13U | 1.07
82 | U7C G9U U10G U11C C13G | 1.06
83 | U7C G9U U10G U11C C13A | 1.28
84 | U7C U8A G9A U10C U11A C12G C13A | 1.12
